Data reported in patent publication US20260258472A1.

Columns and labels:
[1] = target: Human SOD1 in sporadic ALS (sALS) spinal cord homogenate (human) (UniProt P00441); test: cell-based or functional assay
[2] = target: Human SOD1 in sporadic ALS (sALS) spinal cord homogenate (human) (UniProt P00441); test: immunoprecipitation with antibody-linked magnetic beads; immunoblot of the flow-through of sALS patient 4 spinal cord homogenate

Chain of UniProt P00441 (P00441 2-154 limits assumed): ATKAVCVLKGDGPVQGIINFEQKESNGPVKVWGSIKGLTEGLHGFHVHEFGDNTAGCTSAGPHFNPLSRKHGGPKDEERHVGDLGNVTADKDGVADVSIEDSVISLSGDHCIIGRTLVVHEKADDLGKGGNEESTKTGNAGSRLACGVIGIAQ

| 50% ThT (RFU), SOD1 RT-QuIC after immunodepletion [1] [RFU] | Lag phase (hours), SOD1 RT-QuIC after immunodepletion [1] [h] | percent SOD1 remaining in flow-through compared to input [2] [%] | Substance |
| --- | --- | --- | --- |
| 21900 | 62.4 | 21 | Anti-human SOD1 antibody C4F6 (misfolded SOD1; MediMabs #MM-0070-2-P) |
| 27600 | 57.6 | 28 | Isotype control antibody mIgG2a (ThermoFisher #MA110418) |
| 32100 | 70.2 | 75 | Isotype control antibody mIgG2b (ThermoFisher #MA110427) |
| 27300 | 62.7 | 23 | Mouse-anti-SOD1 antibody, clone O98B10 (pan-SOD1; BioLegend #850702) |
